# Test results as given in US20240376170A1 (BRIGHT PEAK THERAPEUTICS, published 2024).
# Bridges are numbered along the chain shown (N, C = ends). Primed or numbered codes have the meaning given here. [ ]: non-standard residue; d: D form. 8x polyethylene glycol‑amino = O-(8x polyethylene glycol-amino)-tyrosine, SITE 45; 9x polyethylene glycol‑azido = O-(9x polyethylene glycol-azido)-tyrosine, SITE 42; Ygp″ = O-(8x polyethylene glycol-amino)-tyrosine; Yn3″ = O-(9x polyethylene glycol-azido)-tyrosine; hSer = N[C@@H](CCO)C(=O)O; Nle = CCCC[C@H](N)C(=O)O
# T1: IL-2 receptor βγ complex (human, UniProt P14784 27-551; P31785 23-369)
# T1 sequence (looked up) 1: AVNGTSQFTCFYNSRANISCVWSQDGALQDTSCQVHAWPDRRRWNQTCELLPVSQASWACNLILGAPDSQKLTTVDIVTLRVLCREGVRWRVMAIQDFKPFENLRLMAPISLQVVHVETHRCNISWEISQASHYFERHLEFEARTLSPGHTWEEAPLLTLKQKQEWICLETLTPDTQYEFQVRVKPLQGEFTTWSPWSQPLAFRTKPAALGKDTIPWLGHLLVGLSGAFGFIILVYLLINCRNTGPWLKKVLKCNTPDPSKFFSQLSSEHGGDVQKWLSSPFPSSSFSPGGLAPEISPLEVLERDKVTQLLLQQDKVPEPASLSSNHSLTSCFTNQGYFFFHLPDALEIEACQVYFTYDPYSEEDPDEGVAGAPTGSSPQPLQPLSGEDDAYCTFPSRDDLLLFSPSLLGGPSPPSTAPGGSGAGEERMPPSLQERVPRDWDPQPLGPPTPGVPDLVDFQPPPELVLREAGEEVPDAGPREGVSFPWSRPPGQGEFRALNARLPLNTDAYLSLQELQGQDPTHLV
# T1 sequence (looked up) 2: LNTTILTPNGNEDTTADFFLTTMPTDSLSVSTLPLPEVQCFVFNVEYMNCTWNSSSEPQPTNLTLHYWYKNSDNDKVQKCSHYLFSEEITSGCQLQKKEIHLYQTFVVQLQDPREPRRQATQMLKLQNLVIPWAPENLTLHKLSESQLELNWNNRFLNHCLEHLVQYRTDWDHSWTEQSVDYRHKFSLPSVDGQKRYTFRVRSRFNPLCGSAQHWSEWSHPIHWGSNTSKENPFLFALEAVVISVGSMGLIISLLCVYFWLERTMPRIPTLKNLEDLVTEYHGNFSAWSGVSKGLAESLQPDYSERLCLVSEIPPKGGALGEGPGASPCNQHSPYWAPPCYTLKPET
# B1: CMP-316, MMP2 cleaved molecule (ligand)
# chain: APTSSSTKKTQLQLEHLLLDLQKILNGINNYKNPKLTR[Nle]L[hSer]Y(9x polyethylene glycol‑azido)KFY(8x polyethylene glycol‑amino)[Nle]PKKATELKHLQCLEEELKPLEEVL[hSer]LAQSKNFHLRPRDLISNINVIVLELKGSETTF[hSer]CEYADETATIVEFLNRWITFSQSIISTLT
# modifications: also: K23 side chain attached to another sequence, m93 after MMP2 cleavage, product not given here as a sequence
# B2: CMP-316, Matriptase cleaved molecule (ligand)
# chain: APTSSSTKKTQLQLEHLLLDLQKILNGINNYKNPKLTR[Nle]L[hSer]Y(9x polyethylene glycol‑azido)KFY(8x polyethylene glycol‑amino)[Nle]PKKATELKHLQCLEEELKPLEEVL[hSer]LAQSKNFHLRPRDLISNINVIVLELKGSETTF[hSer]CEYADETATIVEFLNRWITFSQSIISTLT
# modifications: also: matriptase cleavage product, not given here as a sequence, Lys23 side-chain attachment remnant unknown
# B3: CMP-316, uPa cleaved molecule (ligand)
# chain: APTSSSTKKTQLQLEHLLLDLQKILNGINNYKNPKLTR[Nle]L[hSer]Y(9x polyethylene glycol‑azido)KFY(8x polyethylene glycol‑amino)[Nle]PKKATELKHLQCLEEELKPLEEVL[hSer]LAQSKNFHLRPRDLISNINVIVLELKGSETTF[hSer]CEYADETATIVEFLNRWITFSQSIISTLT
# modifications: also: uPa cleavage product, not given here as a sequence, Lys23 side-chain attachment remnant unknown
# B4: CMP-326 (ligand)
# chain: APTSSSTKKTQLQLEHLLLDLQEILNGINNYKNPKLTR[Nle]L[hSer][Yn3″]KF[Ygp″][Nle]PKKATELKHLQCLEEELKPLEEVL[hSer]LAQSKNFHLRPRDLISNINVIVLELKGSETTF[hSer]CEYADETATIVEFLNRWITFSQSIISTLT
# modifications: bridge 9-23; not fully specified (bridges); ends not checked; also: further groups not given here
# B5: CMP-326, MMP2 cleaved molecule (ligand)
# chain: APTSSSTKKTQLQLEHLLLDLQEILNGINNYKNPKLTR[Nle]L[hSer][Yn3″]KF[Ygp″][Nle]PKKATELKHLQCLEEELKPLEEVL[hSer]LAQSKNFHLRPRDLISNINVIVLELKGSETTF[hSer]CEYADETATIVEFLNRWITFSQSIISTLT
# modifications: not fully specified; ends and bridges not checked; also: Lys9-Glu23 peptide bridge cut by MMP2, fragments left on side chains not given here
# B6: CMP-326, Matriptase cleaved molecule (ligand)
# chain: APTSSSTKKTQLQLEHLLLDLQEILNGINNYKNPKLTR[Nle]L[hSer][Yn3″]KF[Ygp″][Nle]PKKATELKHLQCLEEELKPLEEVL[hSer]LAQSKNFHLRPRDLISNINVIVLELKGSETTF[hSer]CEYADETATIVEFLNRWITFSQSIISTLT
# modifications: not fully specified; ends and bridges not checked; also: Lys9-Glu23 peptide bridge cut by matriptase, fragments left on side chains not given here
# B7: CMP-326, uPa cleaved molecule (ligand)
# chain: APTSSSTKKTQLQLEHLLLDLQEILNGINNYKNPKLTR[Nle]L[hSer][Yn3″]KF[Ygp″][Nle]PKKATELKHLQCLEEELKPLEEVL[hSer]LAQSKNFHLRPRDLISNINVIVLELKGSETTF[hSer]CEYADETATIVEFLNRWITFSQSIISTLT
# modifications: not fully specified; ends and bridges not checked; also: Lys9-Glu23 peptide bridge cut by uPa, fragments left on side chains not given here
# B8: CMP-327 (ligand)
# chain: APTSSSTKKTQLQLEHLLLDLQEILNGINNYKNPKLTR[Nle]L[hSer][Yn3″]KF[Ygp″][Nle]PKKATELKHLQCLEEELKPLEEVL[hSer]LAQSKNFHLRPRDLISNINVIVLELKGSETTF[hSer]CEYADETATIVEFLNRWITFSQSIISTLT
# modifications: bridge 9-23; not fully specified (bridges); ends not checked; also: further groups not given here
# B9: CMP-327, MMP2 cleaved molecule (ligand)
# chain: APTSSSTKKTQLQLEHLLLDLQEILNGINNYKNPKLTR[Nle]L[hSer][Yn3″]KF[Ygp″][Nle]PKKATELKHLQCLEEELKPLEEVL[hSer]LAQSKNFHLRPRDLISNINVIVLELKGSETTF[hSer]CEYADETATIVEFLNRWITFSQSIISTLT
# modifications: ends and bridges not checked; also: Lys9-Glu23 peptide bridge cut by MMP2, fragments left on side chains not given here
# B10: CMP-327, Matriptase cleaved molecule (ligand)
# chain: APTSSSTKKTQLQLEHLLLDLQEILNGINNYKNPKLTR[Nle]L[hSer][Yn3″]KF[Ygp″][Nle]PKKATELKHLQCLEEELKPLEEVL[hSer]LAQSKNFHLRPRDLISNINVIVLELKGSETTF[hSer]CEYADETATIVEFLNRWITFSQSIISTLT
# modifications: ends and bridges not checked; also: Lys9-Glu23 peptide bridge cut by matriptase, fragments left on side chains not given here
# B11: CMP-327, uPa cleaved molecule (ligand)
# chain: APTSSSTKKTQLQLEHLLLDLQEILNGINNYKNPKLTR[Nle]L[hSer][Yn3″]KF[Ygp″][Nle]PKKATELKHLQCLEEELKPLEEVL[hSer]LAQSKNFHLRPRDLISNINVIVLELKGSETTF[hSer]CEYADETATIVEFLNRWITFSQSIISTLT
# modifications: ends and bridges not checked; also: after uPa cleavage, remnants of the Lys9–Glu23 peptide linker not given here
# B12: CMP-331 (ligand)
# chain: APTSSSTKKTQLQLEHLLLDLQKILNGINNYKNPKLTR[Nle]L[hSer]Y(9x polyethylene glycol‑azido)KFY(8x polyethylene glycol‑amino)[Nle]PKKATELKHLQCLEEELKPLEEVL[hSer]LAQSKNFHLRPRDLISNINVIVLELKGSETTF[hSer]CEYADETATIVEFLNRWITFSQSIISTLT
# modifications: bridge N-23; not fully specified (bridges)
# B13: CMP-331, MMP2 cleaved molecule (ligand)
# chain: APTSSSTKKTQLQLEHLLLDLQKILNGINNYKNPKLTR[Nle]L[hSer]Y(9x polyethylene glycol‑azido)KFY(8x polyethylene glycol‑amino)[Nle]PKKATELKHLQCLEEELKPLEEVL[hSer]LAQSKNFHLRPRDLISNINVIVLELKGSETTF[hSer]CEYADETATIVEFLNRWITFSQSIISTLT
# modifications: not fully specified; also: N-terminus (pentanedioic acid-PEG9 linker) and Lys23 side chain attached to another sequence, what remains after MMP2 cleavage is not given here
# B14: CMP-328 (ligand)
# chain: APTSSSTKKTQLQLEHLLLDLQEILNGINNYKNPKLTR[Nle]L[hSer][Yn3″]KF[Ygp″][Nle]PKKATELKHLQCLEEELKPLEEVL[hSer]LAQSKNFHLRPRDLISNINVIVLELKGSETTF[hSer]CEYADETATIVEFLNRWITFSQSIISTLT
# modifications: bridge 9-23; not fully specified (bridges); ends not checked
# B15: CMP-328, MMP2 cleaved molecule (ligand)
# chain: APTSSSTKKTQLQLEHLLLDLQEILNGINNYKNPKLTR[Nle]L[hSer][Yn3″]KF[Ygp″][Nle]PKKATELKHLQCLEEELKPLEEVL[hSer]LAQSKNFHLRPRDLISNINVIVLELKGSETTF[hSer]CEYADETATIVEFLNRWITFSQSIISTLT
# modifications: ends and bridges not checked; also: after MMP2 cleavage, remnants of the Lys9–Glu23 peptide linker not given here
# Molecular target: T1, IL-2 receptor βγ complex
# Experiment: cell-based or functional assay
row,Binder,"Average EC50, pSTAT5 Assay in NK cells [nM]"
1,B1,0.46
2,B2,0.617
3,B3,0.533
4,B4,15.5
5,B5,16
6,B6,17.6
7,B7,18
8,B8,16.6
9,B9,0.85
10,B10,17.3
11,B11,12.1
12,B12,6.59
13,B13,5.09
14,B14,9.23
15,B15,1.48
